T1: human big-endothelin-1 (big-ET-1) (human)
T1 construct: 38 amino acid peptide; also called human big-ET-1; hBig-ET-1
T1 peptide: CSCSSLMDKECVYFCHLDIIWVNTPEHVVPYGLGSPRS

T2: mouse big-ET-1 (mouse)
T2 construct: also called mBig-ET-1
T2 peptide: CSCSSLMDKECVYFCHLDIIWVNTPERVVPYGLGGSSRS

T3: small-ET-1 (endothelin-1) (human)
T3 construct: 21 amino acid peptide, same for mouse and human; also called human small-ET-1; EDN-1
T3 peptide: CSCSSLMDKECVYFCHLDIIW

B1: H2M6486N (antibody, V domains shown)
VH: EVQLVESGGGLVKPGGSLRLSCAASGFTFSSYNMNWVRQAPGKGLEWVSSISSSSSYIYYADSVKGRFTISRDNAKNSLYLQMNSLRAEDTAVYYCARDNWNYSFDYWGQGTLVTVSS
VL: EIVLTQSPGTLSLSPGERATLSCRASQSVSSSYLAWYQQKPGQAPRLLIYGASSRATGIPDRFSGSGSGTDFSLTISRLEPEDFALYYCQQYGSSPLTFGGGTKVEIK
notes: Hybridoma antibody, human variable domains, mouse IgG2 Fc (prefix H2M)
B2: H4H6328P (antibody, V domains shown)
VH: QVQLVESGGGVVQPGRSLRLSCAASGFTFSSYGMHWVRQAPGKGLEWVAVIWYDGSDKYYADSVKGRFTISRDNSKNTLYLQMNSLRAEDTAVYYCARDGYGSRGNYFDYWGQGTLVTVSS
VL: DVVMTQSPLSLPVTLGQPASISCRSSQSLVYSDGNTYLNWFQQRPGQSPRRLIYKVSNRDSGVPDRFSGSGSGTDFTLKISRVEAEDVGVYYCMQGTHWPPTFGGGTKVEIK
notes: Human IgG4 Fc (prefix H4H)
B3: H2M6490N (antibody, V domains shown)
VH: EVQLLESGGGLVQPGGSLRLSCAASGFTFSSYAMTWVRQAPGKGLECISAISGSGYSTYYADSMKGRFSISRDNSKNTLYLQMNRLRAEDTAVYYCTKGGRILEWLLPFDFWGQGTLVTVSS
VL: DVVMTQSPLSLPVTLGQPASISCRSSQSLVYSDGNTYLIWFQQRPGQSPRRLIYKVSNRDSGVPDRFSGSGSGTDFTLIISRVEAEDVGLYYCMQGTHWPPTFGGGTKVEIK
notes: as for B1
B4: H4H6334P (antibody, V domains shown)
VH: EVQLVESGGGLVKPGGSLRLSCAVSGFTFSIDWMIWVRQAPGTGLEWVGRIKRKTDGGTTDYAAPVKGRFTISRDDSKNTLYLQMNSLKTEDTAIYYCATGGFERVGQGTLVTVSS
VL: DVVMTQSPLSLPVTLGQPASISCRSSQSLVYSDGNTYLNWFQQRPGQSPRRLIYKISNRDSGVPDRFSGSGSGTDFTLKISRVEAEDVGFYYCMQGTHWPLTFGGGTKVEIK
notes: Human IgG4 Fc (prefix H4H)
B5: H1M6492N (antibody, V domains shown)
VH: EVQLVESGGGLVKPGGSLRVSCVASGFTFSNAWMTWVRQTPGKGLECVGRIKSRTDGGTVDYVAPVKGRFTISRDDSKNTLYLQMNSLKAEDTAVYYCRADLDYWGQGTLVTVSS
VL: DVVMTQSPLSLPVSLGQPASISCRSSQSLVHSDGITYLNWFQQRPGQSPRRLIYKISNRDSGVPDRFSGSGSGTDFTLKFSRVEAEDVGVYFCMQGTHWPYTFGQGTKLEIK
notes: Hybridoma antibody, human variable domains, mouse constant domains; prefix H1M marks the Fc region (isotype not spelled out)
B6: H1M6494N (antibody, V domains shown)
VH: EVQLVESGGGLVKPGGSLRVSCVASGFTFSNAWMTWVRQTPGKGLECVGRIKSRTDGGTVDYVAPVKGRFTISRDDSKNTLYLQMNSLKAEDTAVYYCRADLDYWGQGTLVTVSS
VL: DVVMTQSPLSLPVSLGQPASISCRSSQSLVHSDGITYLNWFQQRPGQSPRRLIYKISNRDSGVPDRFSGSGSGTDFTLKFSRVEAEDVGVYFCMQGTHWPYTFGQGTKLEIK
notes: as for B5
B7: H4H6495N (antibody, V domains shown)
VH: QVQLVESGGGVVQPGRSLRLSCAASGFTFRSYGMHWVRQAPGKGLEWVAVIWYDGSDKYYADSVKGRFTISRDNSKNTLYLQMNSLRAEDTAVYFCAKDEYKTRGGYFDYWGQGTLVTVSS
VL: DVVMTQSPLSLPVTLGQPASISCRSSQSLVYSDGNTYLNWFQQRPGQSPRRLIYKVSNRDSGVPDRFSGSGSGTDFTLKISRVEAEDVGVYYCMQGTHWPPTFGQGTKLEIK
notes: Human IgG4 Fc version of 6495N; also called 6495N (human IgG4 format)
B8: H2M6495N (antibody, V domains shown)
VH: QVQLVESGGGVVQPGRSLRLSCAASGFTFRSYGMHWVRQAPGKGLEWVAVIWYDGSDKYYADSVKGRFTISRDNSKNTLYLQMNSLRAEDTAVYFCAKDEYKTRGGYFDYWGQGTLVTVSS
VL: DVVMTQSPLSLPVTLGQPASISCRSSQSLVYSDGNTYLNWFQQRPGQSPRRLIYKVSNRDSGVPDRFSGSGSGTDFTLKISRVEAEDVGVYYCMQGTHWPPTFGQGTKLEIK
notes: as for B1

Key:
[1] = target: T1, human big-endothelin-1 (big-ET-1); test: SPR (Biacore T200), 37 C, mAb capture, peptide analyte
Procedure: (§1) Measurements were conducted on a T200 Biacore instrument (Biacore Life Sciences division of GE Healthcare, Piscataway, N.J.). […] Peptide binding was monitored for 3 min while dissociation of mAb-bound peptide was monitored for 4 min in HBST running buffer (0.01 M HEPES pH 7.4, 0.15 M NaCl, 3 mM EDTA, 0.005% v/v Surfactant P20). Kinetic association (kₐ) and dissociation (kd) rate constants were determined by processing and fitting the data to a 1:1 binding model using Scrubber 2.0 curve fitting software.

[2] = target: T2, mouse big-ET-1; test: as above
Procedure: as §1

[3] = target: T3, small-ET-1 (endothelin-1); test: as above
Procedure: as §1

[4] = target: T1, human big-endothelin-1 (big-ET-1); test: cell-based or functional assay
[5] = target: T1, human big-endothelin-1 (big-ET-1); test: cell-based or functional assay
[6] = target: T2, mouse big-ET-1; test: cell-based or functional assay
[7] = target: T1, human big-endothelin-1 (big-ET-1); test: SPR (Biacore T200), 37 C, mAb capture, peptide analyte
Procedure: as §1

[8] = target: T1, human big-endothelin-1 (big-ET-1); test: SPR (Biacore T200), 37 C, mAb capture, peptide analyte; human IgG4 format (H4H), captured on mouse anti-human Fc surface; Table 3
Procedure: as §1

[9] = target: T1, human big-endothelin-1 (big-ET-1); test: SPR (Biacore T200), 37 C, mAb capture, peptide analyte; hybridoma mAb (H2M, mouse Fc), captured on rabbit anti-mouse surface; Table 2
Procedure: as §1

| Binder | Kd [1] [nM] | T½ [1] [min] | koff [1] [s⁻¹] | kon [1] [M⁻¹ s⁻¹] | Kd [2] [nM] | T½ [2] [min] | koff [2] [s⁻¹] | kon [2] [M⁻¹ s⁻¹] | binding result [3] | Blocking IC50(M), 10 nM hBig-ET-1 + 3 nM hECE1 [Trial 1]; 293/ETaR/NFAT-Luc luciferase [4] [M] | Blocking IC50(M), 10 nM hBig-ET-1 + 3 nM hECE1; 293/ETaR/NFAT-Luc luciferase [5] [M] | Blocking IC50(M), 20 nM mBig-ET-1 + 5 nM mECE1; 293/ETaR/NFAT-Luc luciferase [6] [M] | Kd [7] [nM] | Kd [8] [nM] | Kd [9] [nM] |
| --- | --- | --- | --- | --- | --- | --- | --- | --- | --- | --- | --- | --- | --- | --- | --- |
| B1 | 239 | 0.1 | 0.0898 | 380000 | 160 | 0.1 | 0.135 | 830000 | no binding | 7.6e-09 |  |  |  |  |  |
| B2 | ≤ 0.00634 | 11600 | ≤ 1e-06 | 158000 |  |  |  |  | no binding |  | > 1e-07 | > 1e-07 | < 0.05 |  |  |
| B3 | 19.1 | 3 | 0.00399 | 209000 |  |  |  |  | no binding | 1.9e-09 |  |  |  |  |  |
| B4 | 0.043 | 133 | 8.68e-05 | 2.02e+06 | 58 | 25 | 0.000456 | 7900 |  |  | 6.8e-10 | > 1e-07 | < 0.05 |  |  |
| B5 | 6.46 | 7 | 0.0016 | 248000 |  |  |  |  | no binding | 1.5e-09 |  |  |  |  |  |
| B6 | 7.07 | 7 | 0.00169 | 239000 |  |  |  |  | no binding | 1.5e-09 |  |  |  |  |  |
| B7 |  | 0.3 | 0.0399 | 606000 |  |  |  |  |  |  | 1.33e-08 |  |  | 65.9 |  |
| B8 |  | 11600 | ≤ 1e-06 | 117000 |  |  |  |  | no binding | 4.3e-09 |  |  | < 0.05 |  | ≤ 0.00853 |
